# Measurements: IntAct's records for PubMed 18552200
# B1: DDB1- and CUL4-associated factor homolog 1 (Arabidopsis thaliana (Mouse-ear cress)), Q9M086 (parent)
# chain: MDGQEHAEVPNSMVEDDQSVVAAEAIAELANSTGEPNPEEGEEQSVEDELIAKAQKLMEDITSVANNPNPNILHALSQLLESQESLFLEENGHFSNARGSHNSGKLCILIRENDEFFELISSTFLSENSYSTAVKAASARLLMNCSLTWMYPHVFDDAVTENFKNWVMEEAVKFPGEDSAKKEASDFEMLKTYSTGLLALSLASRGQIVEDVLTSGLSAKLMHYLRVRVLKEPSTSRIHTTETKHVSLKTKEEGRSRVRKIVDTVEGDHVLETDSGREMGQTDVQPDGEFEIDGRDVFNVSGVVDCKIKPGDDNSVRDDPSRHRLNRSKSRGRGRVHEGAPDTEVLLASPRLGRLLVRDRDLSKISDGRNAEDVTVCLGKMKSGIMEIEREDNDECFQGCIIGTKNITDLVKRAVGAAETEARAAHAPDDAAKAAGDAAAELVKTAALEEFKSSGSEEAAVSAATRAAITVIDAAEVSRNPTCVTSDQTTDVSEVSLPDIESLAQLQEKYCIQCLEILGEYVEVLGPVLHEKGVDVCIVLLERTSQLDDRSTVSPLLPDVMKLICALAAHRKFAAMFVERRGILKLLAVPRVSETFYGLSSCLYTIGSLQGIMERVCALPLVVIHQVVKLAIELLDCSQDQARKNSALFFAAAFVFRAILDAFDAQDSLQKLLAILKDAASVRTGANTDRSAPEVMTSSEKQMAFHTCFALRQYFRAHLLLLVDSIRPSRISRGGVPSSMKPNIRAAYKPLDISNEAVDAIFLQLQKDRRLGPTFVKAQWPAVNNFLASSGHVTMLELCQTPPVDRYLHDLLQYAFGVLHIVTSIPDGRKAIAHATLSNNRAGIAVILDAANISNSIVDPEIIQPALNVLINLVCPPPSLSNKPPLAQNHQPVPGQATTRPSTDVAVGTQSTGNAPQTPVAPASSGLVGDRRIFLGAGTGSAGLAAKLEQVYRQAREAVRGNDGIKILLKLLQPRIYVNPPATPDCLRALACRVLLGLARDDTIAQILTKLEVGKSLSELIRDSGGQSSGTDQGRWQAELAQVALELIGIVTNSGHATTLTASDAATPTLRRIERAAIAAATPITYDSKELLLLIHEHLQASGLGDTASALLKEAQLTPLPSSASPSSIAYSTTQEMSTPLAQEQWPSGRANSGFFTSKPKVCAHDEDPNSRSNAALSAKKKHLASSTLEMPTPVAQQQWPSGRANCGFCPSIPKINARDEDPSSRGNAAPSAKKKQLTFSPSFSSQSRKQSFSHDALPQSTQRINCCSNSDPALADTSETAAELVLKNDLDADAQFKTPISFPRKRKLSELRDSSVPGKRIDLGERRNSTFADGSGLQTPASALDANQSGSSRLGQMTPASQLRLPSDPQPSNPERLSLDSLVVQYLKHQHRQCLAPITTLPPVSLLHPHVCPEPKRLLEAPLNMTGRLGTRELQSFYSGVHGNRRDRQFVFSRFKSWRSFRDETALFTCIALLGGTNHIAVGSHAGEIKIFEASSGSMLESVSGHQAPVTLVQPYVSRDTQLLLSSSSSDVQLWDASSITGGPRHSFDGCKAAKFSNSGLQFAALSCEASRKDVLLYDVQTCSPCQKLTDTVTSSRSNPYSLVHFSPCDTLILWNGVLWDRRIPEKVRRFDQFTDYGGGGFHPSRNEVIINSEIWDMRTFKLLRSVPSLDQTAITFNSRGDVIYAMLRRNIEDVMSAVHTRRVKHPLFAAFRTLDAINYSDIATIPVDRCLLDFATEPTDSFLGLITMEDQEDMFSSARMYEIGRRRPTDDDSDPDDDDETEDEDEDDEEEDDLDRILGLAGDNSDSGDDDLSSEDNEDSVSDFDEEADILIDGDFMEELIEGENEDDGNGEDEDDDDDGEMQDFMSSGEEDDYRDNIRSS
# partner: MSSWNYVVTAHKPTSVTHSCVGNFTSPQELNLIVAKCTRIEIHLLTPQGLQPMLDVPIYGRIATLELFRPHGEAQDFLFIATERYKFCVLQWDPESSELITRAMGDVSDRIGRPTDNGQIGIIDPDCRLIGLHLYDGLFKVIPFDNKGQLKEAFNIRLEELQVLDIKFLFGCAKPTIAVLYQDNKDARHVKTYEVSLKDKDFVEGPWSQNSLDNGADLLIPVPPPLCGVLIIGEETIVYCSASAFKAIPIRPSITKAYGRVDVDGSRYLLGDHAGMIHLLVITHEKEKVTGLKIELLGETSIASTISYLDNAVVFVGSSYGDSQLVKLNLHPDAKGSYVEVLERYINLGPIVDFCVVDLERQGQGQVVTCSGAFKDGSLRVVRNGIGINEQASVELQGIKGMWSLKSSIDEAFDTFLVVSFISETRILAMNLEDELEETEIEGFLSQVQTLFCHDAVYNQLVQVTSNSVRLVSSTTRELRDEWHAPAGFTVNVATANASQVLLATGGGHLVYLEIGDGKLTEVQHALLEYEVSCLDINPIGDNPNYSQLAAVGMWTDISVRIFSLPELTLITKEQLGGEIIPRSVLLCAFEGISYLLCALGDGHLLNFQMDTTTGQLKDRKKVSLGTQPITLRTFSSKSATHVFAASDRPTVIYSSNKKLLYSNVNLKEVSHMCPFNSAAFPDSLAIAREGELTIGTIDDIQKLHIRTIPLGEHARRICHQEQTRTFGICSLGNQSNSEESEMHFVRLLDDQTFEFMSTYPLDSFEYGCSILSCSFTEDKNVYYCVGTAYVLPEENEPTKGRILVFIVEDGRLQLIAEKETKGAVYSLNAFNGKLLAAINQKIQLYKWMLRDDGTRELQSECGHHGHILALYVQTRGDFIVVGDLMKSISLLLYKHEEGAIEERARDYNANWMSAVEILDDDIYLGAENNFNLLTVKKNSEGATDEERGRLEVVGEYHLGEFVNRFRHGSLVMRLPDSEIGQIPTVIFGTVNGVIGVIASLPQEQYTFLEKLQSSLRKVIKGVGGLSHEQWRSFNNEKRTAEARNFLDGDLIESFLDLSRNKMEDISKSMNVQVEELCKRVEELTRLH
# Variants of: B1
# Conditions: with ddb1a_arath DDB1A
row,Variant,effect of a mutation on the interaction
1,D1622A;R1624A;D1658A;R1660A,decreasing interaction
2,D1658A;R1660A,decreasing interaction
3,D1622A;R1624A,decreasing interaction
